Positions count from the first letter of the chain named.
B1: anti-human MCT1 antibody Ab1 (antibody, human IgG1, kappa, V domains shown)
VH: QVQLVQSGAEVKKPGASVKVSCTVSGFSLTNYHLQWVRQAPGQGLEWMGFIRSSGNTEYNSEFKSRVTMTRDTSTSTVYMELSSLRSEDTAVYYCARNSWYHGTYYSPGYYVMDAWGQGTLVTVSS
VL: EIVLTQSPGTLSLSPGERATLSCKGSQNINNYLAWYQQKPGQAPRLLIYNRHNLQTGIPDRFSGSGSGTDFTLTISRLEPEDFAVYYCYQYSDGYTFGGGTKVEIKR
B2: anti-human MCT1 antibody Ab7 (antibody, human IgG1, kappa, V domains shown)
VH: B1 VH with F27R, L29R, S99R
VL: B1 VL with N30E
B3: anti-human MCT1 antibody Ab8 (antibody, human IgG1, kappa, V domains shown)
VH: B1 VH with F27R, E58I, S99R
VL: B1 VL with N30E
B4: anti-human MCT1 antibody Ab9 (antibody, human IgG1, kappa, V domains shown)
VH: B1 VH with F27R, L34I, S99R
VL: B1 VL with N30E
B5: anti-human MCT1 antibody Ab10 (antibody, human IgG1, kappa, V domains shown)
VH: B1 VH with F27R, N31G, S99R
VL: B1 VL with N30E
B6: anti-human MCT1 antibody Ab11 (antibody, human IgG1, kappa, V domains shown)
VH: B1 VH with F27R, S99R, Y101H
VL: B1 VL with N30E
B7: anti-human MCT1 antibody Ab12 (antibody, human IgG1, kappa, V domains shown)
VH: B1 VH with F27R, Q35V, S99R
VL: B1 VL with N30E
B8: anti-human MCT1 antibody Ab13 (antibody, human IgG1, kappa, V domains shown)
VH: B1 VH with F27R, S99R, Y101R
VL: B1 VL with N30E
B9: anti-human MCT1 antibody Ab14 (antibody, human IgG1, kappa, V domains shown)
VH: B1 VH with F27R, S99R, A115P
VL: B1 VL with N30E
B10: anti-human MCT1 antibody Ab15 (antibody, human IgG1, kappa, V domains shown)
VH: B1 VH with F27R, S99L
VL: B1 VL with N30E
B11: anti-human MCT1 antibody Ab16 (antibody, human IgG1, kappa, V domains shown)
VH: B1 VH with V24R, F27R, S99R
VL: B1 VL with N30E
B12: anti-human MCT1 antibody Ab17 (antibody, human IgG1, kappa, V domains shown)
VH: B1 VH with F27R, Y32I, S99R
VL: B1 VL with N30E
B13: anti-human MCT1 antibody Ab18 (antibody, human IgG1, kappa, V domains shown)
VH: B1 VH with F27R, Q35G, S99R
VL: B1 VL with N30E
B14: anti-human MCT1 antibody Ab19 (antibody, human IgG1, kappa, V domains shown)
VH: B1 VH with F27R, S53R, S99R
VL: B1 VL with N30E

Target: human serum polyclonal antibodies
Assay: cross-interaction chromatography (CIC), column with human serum polyclonal IgG

Row | Binder | IgG column RT | IgG column peak width
1 | B1 | 5.07 min | 1.5 min
2 | B2 | 5.38 min | 1.79 min
3 | B3 | 5.34 min | 1.55 min
4 | B4 | 5.28 min | 1.46 min
5 | B5 | 5.27 min | 1.44 min
6 | B6 | 5.33 min | 1.57 min
7 | B7 | 5.29 min | 1.46 min
8 | B8 | 5.33 min | 1.63 min
9 | B9 | 5.29 min | 1.51 min
10 | B10 | 5.27 min | 1.55 min
11 | B11 | 5.4 min | 1.89 min
12 | B12 | 5.19 min | 1.36 min
13 | B13 | 5.35 min | 1.64 min
14 | B14 | 5.41 min | 1.94 min

Target: human serum polyclonal antibodies
Assay: cross-interaction chromatography (CIC), IgG column against blank column

Row | Binder | IgG K' (column retention time ratio)
15 | B1 | 0.05
16 | B2 | 0.08
17 | B3 | 0.07
18 | B4 | 0.07
19 | B5 | 0.06
20 | B6 | 0.06
21 | B7 | 0.07
22 | B8 | 0.07
23 | B9 | 0.07
24 | B10 | 0.09
25 | B11 | 0.08
26 | B12 | 0.05
27 | B13 | 0.08
28 | B14 | 0.08
